We go through 41 molecules from US20220010021A1 (Sanofi, published 2022).

Residue numbers refer to the chain shown, from its start.

In the experiment the target is human FGFR1c + KLB receptor complex on HEK293 iLite FGF21 reporter cells (human, UniProt P11362 22-822; Q86Z14 1-1044). In words: cell-based or functional assay.
Sequence of human FGFR1c + KLB receptor complex on HEK293 iLite FGF21 reporter cells (P11362 22-822, chain 1 of 2): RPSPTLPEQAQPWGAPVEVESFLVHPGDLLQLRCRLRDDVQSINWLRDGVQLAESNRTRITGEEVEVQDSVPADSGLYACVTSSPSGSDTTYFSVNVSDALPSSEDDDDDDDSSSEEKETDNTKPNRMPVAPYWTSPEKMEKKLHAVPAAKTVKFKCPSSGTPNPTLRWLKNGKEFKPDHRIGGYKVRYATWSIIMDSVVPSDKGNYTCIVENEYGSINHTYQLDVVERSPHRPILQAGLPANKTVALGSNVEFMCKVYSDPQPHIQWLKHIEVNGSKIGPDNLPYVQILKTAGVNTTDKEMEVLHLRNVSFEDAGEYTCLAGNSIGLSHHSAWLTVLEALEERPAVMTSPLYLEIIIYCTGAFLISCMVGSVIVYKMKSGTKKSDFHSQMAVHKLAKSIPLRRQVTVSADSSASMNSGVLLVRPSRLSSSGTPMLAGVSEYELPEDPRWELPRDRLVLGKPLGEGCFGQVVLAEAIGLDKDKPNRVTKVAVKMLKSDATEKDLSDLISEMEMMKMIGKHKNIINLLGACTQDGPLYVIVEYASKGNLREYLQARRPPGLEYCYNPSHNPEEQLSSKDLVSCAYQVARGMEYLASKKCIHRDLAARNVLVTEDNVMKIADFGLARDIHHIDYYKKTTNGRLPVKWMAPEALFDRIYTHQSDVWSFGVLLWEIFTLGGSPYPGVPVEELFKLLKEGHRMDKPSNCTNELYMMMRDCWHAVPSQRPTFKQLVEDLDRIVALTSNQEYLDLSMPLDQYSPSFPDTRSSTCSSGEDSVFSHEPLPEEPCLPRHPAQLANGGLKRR
Sequence of human FGFR1c + KLB receptor complex on HEK293 iLite FGF21 reporter cells (Q86Z14 whole entry, chain 2 of 2): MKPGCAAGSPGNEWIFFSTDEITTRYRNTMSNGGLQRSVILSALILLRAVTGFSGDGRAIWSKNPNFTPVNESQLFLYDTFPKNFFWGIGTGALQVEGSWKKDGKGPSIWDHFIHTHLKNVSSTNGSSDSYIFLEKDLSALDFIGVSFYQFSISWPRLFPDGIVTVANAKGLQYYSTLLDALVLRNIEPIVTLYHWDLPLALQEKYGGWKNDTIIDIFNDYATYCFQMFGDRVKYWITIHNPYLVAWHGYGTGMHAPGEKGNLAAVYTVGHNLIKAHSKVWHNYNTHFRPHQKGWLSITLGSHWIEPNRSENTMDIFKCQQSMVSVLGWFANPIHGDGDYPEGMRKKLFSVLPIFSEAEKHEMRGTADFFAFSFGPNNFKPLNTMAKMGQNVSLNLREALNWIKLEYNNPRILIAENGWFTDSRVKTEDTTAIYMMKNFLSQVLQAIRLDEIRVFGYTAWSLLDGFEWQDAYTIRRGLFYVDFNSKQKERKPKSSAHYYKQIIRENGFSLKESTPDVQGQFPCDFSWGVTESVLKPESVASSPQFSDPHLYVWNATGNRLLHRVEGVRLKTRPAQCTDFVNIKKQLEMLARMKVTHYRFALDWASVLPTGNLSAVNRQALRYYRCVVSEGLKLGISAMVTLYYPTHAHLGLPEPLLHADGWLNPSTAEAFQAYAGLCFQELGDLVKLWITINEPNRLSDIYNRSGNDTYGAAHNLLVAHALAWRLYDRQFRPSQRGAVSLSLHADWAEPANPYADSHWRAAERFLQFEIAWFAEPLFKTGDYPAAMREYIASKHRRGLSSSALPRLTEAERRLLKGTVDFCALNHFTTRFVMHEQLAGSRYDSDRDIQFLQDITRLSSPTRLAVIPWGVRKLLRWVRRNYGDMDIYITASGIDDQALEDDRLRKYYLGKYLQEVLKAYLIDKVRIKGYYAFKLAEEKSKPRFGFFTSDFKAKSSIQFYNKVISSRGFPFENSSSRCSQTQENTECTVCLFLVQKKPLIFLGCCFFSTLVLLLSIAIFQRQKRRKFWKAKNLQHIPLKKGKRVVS

B1: Ab0331 (antibody, human IgG4 S228P, lambda)
heavy: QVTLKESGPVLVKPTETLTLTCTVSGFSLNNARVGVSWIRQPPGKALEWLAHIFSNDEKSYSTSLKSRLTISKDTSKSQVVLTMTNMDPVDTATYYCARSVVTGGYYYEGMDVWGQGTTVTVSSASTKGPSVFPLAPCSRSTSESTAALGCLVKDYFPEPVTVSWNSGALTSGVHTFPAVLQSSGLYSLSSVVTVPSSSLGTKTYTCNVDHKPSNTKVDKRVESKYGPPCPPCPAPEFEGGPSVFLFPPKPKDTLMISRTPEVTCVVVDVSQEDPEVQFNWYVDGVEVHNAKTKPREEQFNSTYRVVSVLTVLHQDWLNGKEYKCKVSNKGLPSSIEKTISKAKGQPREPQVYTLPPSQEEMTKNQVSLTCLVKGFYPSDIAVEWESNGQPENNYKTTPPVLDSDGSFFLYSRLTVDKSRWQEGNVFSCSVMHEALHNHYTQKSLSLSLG
light: SYVLTQPPSVSVAPGQTARITCGGSNIGSESVHWYQQKPGQAPVLVVYSESDRPSGIPERFSGSNSGNTATLTISRVEAGDEADYYCQVWEGESDHVVFGGGTKLTVLGQPKANPTVTLFPPSSEELQANKATLVCLISDFYPGAVTVAWKADGSPVKAGVETTKPSKQSNNKYAASSYLSLTPEQWKSHRSYSCQVTHEGSTVEKTVAPTECS
Consider B1, for which the EC50 was 0.04 nM and the Emax is 1090%.

B2: Ab0335 (antibody, human IgG4 S228P, lambda)
heavy: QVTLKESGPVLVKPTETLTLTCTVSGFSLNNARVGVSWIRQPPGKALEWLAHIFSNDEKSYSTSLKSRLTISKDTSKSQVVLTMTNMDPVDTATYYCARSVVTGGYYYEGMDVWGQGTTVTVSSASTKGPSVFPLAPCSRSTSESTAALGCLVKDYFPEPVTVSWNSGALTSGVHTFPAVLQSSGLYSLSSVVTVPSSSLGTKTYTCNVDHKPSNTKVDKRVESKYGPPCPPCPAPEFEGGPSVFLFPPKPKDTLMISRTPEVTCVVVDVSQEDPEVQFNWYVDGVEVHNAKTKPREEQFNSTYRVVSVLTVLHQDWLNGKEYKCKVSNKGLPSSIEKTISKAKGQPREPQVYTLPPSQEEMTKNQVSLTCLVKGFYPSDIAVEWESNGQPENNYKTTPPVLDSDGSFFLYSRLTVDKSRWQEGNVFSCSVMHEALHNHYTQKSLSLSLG
light: B1 light with E50A
B2: the EC50 amounted to 0.04 nM and the Emax is 1220%.

B3: Ab0351 (antibody, human IgG4 S228P, lambda)
heavy: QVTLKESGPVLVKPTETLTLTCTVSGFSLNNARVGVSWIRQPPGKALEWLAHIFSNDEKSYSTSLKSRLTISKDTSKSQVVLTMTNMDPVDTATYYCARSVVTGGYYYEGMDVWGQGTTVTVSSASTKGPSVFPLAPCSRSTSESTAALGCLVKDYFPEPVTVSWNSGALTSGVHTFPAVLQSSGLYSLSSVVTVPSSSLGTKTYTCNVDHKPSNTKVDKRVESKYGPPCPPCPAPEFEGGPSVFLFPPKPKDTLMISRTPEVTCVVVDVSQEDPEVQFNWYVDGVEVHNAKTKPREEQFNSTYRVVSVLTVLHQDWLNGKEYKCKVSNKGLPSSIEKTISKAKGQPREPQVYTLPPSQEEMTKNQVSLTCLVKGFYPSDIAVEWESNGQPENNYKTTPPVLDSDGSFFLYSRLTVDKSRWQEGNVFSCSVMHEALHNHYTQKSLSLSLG
light: B1 light with S49E
Take B3: the EC50 turned out to be 0.03 nM and the Emax turned out to be 1040%.

B4: Ab0374 (antibody, IgG4, V domains shown)
VH: QVTLKESGPVLVKPTETLTLTCTVSGFSLNNARVGVSWIRQPPGKALEWLAHIWSNDEKSYSTSLKSRLTISKDTSKSQVVLTMTNMDPVDTATYYCARSVVTGGYYYEGMDVWGQGTTVTVSS
VL: SYVLTQPPSVSVAPGQTARITCGGNNIGSESVHWYQQKPGQAPVLVVDDSDRPSGIPERFSGSNSGNTATLTISRVEAGDEADYYCQVFDGNSEHVVFGGGTKLTVLG
B4: the EC50 is > 100 nM.

B5: Ab0328 (antibody, IgG4, V domains shown)
VH: B4 VH with W54F
VL: SYVLTQPPSVSVAPGQTARITCGGSNIGSESVHWYQQKPGQAPVLVVYYASDRPSGIPERFSGSNSGNTATLTISRVEAGDEADYYCQVWAGSSDHVVFGGGTKLTVLG
Consider B5, for which the concentration giving a half-maximal response (EC50) turned out to be 4.11 nM and the Emax was 421%.

B6: Ab0339 (antibody, IgG4, V domains shown)
VH: B4 VH with W54F
VL: B5 VL with Y49A, A50E
For the molecule B6, the EC50 came out at 2.16 nM and the maximum response (Emax) stood at 545%.

B7: Ab0341 (antibody, IgG4, V domains shown)
VH: B4 VH with W54F
VL: B5 VL with Y49A, A50Y
In the case of B7, the EC50 was determined as 1.4 nM and the Emax worked out at 528%.

B8: Ab0334 (antibody, IgG4, V domains shown)
VH: B4 VH with W54F
VL: B5 VL with Y49S
B8: the EC50 was 1.02 nM and the Emax is 718%.

B9: Ab0343 (antibody, IgG4, V domains shown)
VH: B4 VH with W54F
VL: B5 VL with Y49A
Consider B9, for which the EC50 was determined as 1.37 nM and the Emax came out at 482%.

B10: Ab0336 (antibody, IgG4, V domains shown)
VH: B4 VH with W54F
VL: B5 VL with Y49S, A50H
As to B10, the EC50 amounted to 2.91 nM and the Emax was 576%.

B11: Ab0342 (antibody, IgG4, V domains shown)
VH: B4 VH with W54F
VL: B5 VL with Y49A, S93E
Consider B11, for which the EC50 was found to be 0.34 nM and the Emax is 775%.

B12: Ab0329 (antibody, IgG4, V domains shown)
VH: B4 VH with W54F
VL: B5 VL with A50S
Turning to B12, the EC50 amounted to 4.59 nM and the Emax is 443%.

B13: Ab0346 (antibody, IgG4, V domains shown)
VH: B4 VH with W54F
VL: B5 VL with Y49A, A50H
As for B13, the EC50 was found to be 2.25 nM and the Emax was 532%.

B14: Ab0396 (antibody, IgG4, V domains shown)
VH: B4 VH with H52S
VL: B4 VL with E94A
As to B14, the EC50 was > 100 nM.

B15: Ab0379 (antibody, IgG4, V domains shown)
VH: B4 VH
VL: B4 VL with S1C, S93C, E94V
As for B15, the EC50 is > 100 nM and the Emax is 171%.

B16: Ab0390 (antibody, IgG4, V domains shown)
VH: B4 VH
VL: B4 VL with S93C, E94S, H95C
Turning to B16, the EC50 was > 100 nM.

B17: Ab0405 (antibody, IgG4, V domains shown)
VH: B4 VH with H52S
VL: B4 VL with E94T
Take B17: the EC50 was > 100 nM.

B18: Ab0382 (antibody, IgG4, V domains shown)
VH: B4 VH with H52S
VL: B4 VL with S93C, E94V, H95C
Consider B18, for which the EC50 was > 100 nM.

B19: Ab0380 (antibody, IgG4, V domains shown)
VH: B4 VH with H52S
VL: B4 VL with S1C, S93C, E94V
Consider B19, for which the EC50 is > 100 nM.

B20: Ab0399 (antibody, IgG4, V domains shown)
VH: B4 VH
VL: B4 VL with S93C, E94A, H95C
Regarding B20, the EC50 was > 100 nM.

B21: Ab0394 (antibody, IgG4, V domains shown)
VH: B4 VH with H52W, W54F
VL: B4 VL with S1C, S93C, E94S
Regarding B21, the EC50 is > 100 nM.

B22: Ab0397 (antibody, IgG4, V domains shown)
VH: B4 VH
VL: B4 VL with S1C, S93C, E94A
For B22, the EC50 is > 100 nM.

B23: Ab0402 (antibody, IgG4, V domains shown)
VH: B4 VH with H52W, W54F
VL: B4 VL with S93C, E94A, H95C
For the molecule B23, the EC50 was > 100 nM.

B24: Ab0400 (antibody, IgG4, V domains shown)
VH: B4 VH with H52S
VL: B4 VL with S93C, E94A, H95C
Regarding B24, the EC50 was > 100 nM.

B25: Ab0401 (antibody, IgG4, V domains shown)
VH: B4 VH with H52W, W54F
VL: B4 VL with E94A
As for B25, the EC50 is > 100 nM.

B26: Ab0406 (antibody, IgG4, V domains shown)
VH: B4 VH with H52S
VL: B4 VL with S1C, S93C, E94T
Take B26: the EC50 is > 100 nM.

B27: Ab0391 (antibody, IgG4, V domains shown)
VH: B4 VH with H52S
VL: B4 VL with S93C, E94S, H95C
On to B27, for which the EC50 is > 100 nM.

B28: Ab0377 (antibody, IgG4, V domains shown)
VH: B4 VH
VL: B4 VL with E94V
For B28, the EC50 is > 100 nM.

B29: Ab0375 (antibody, IgG4, V domains shown)
VH: B4 VH
VL: B4 VL with S1C, S93C
As for B29, the EC50 was > 100 nM.

B30: Ab0383 (antibody, IgG4, V domains shown)
VH: B4 VH with H52W, W54F
VL: B4 VL with E94V
With B30, the EC50 was > 100 nM.

B31: Ab0404 (antibody, IgG4, V domains shown)
VH: B4 VH
VL: B4 VL with E94T
Consider B31, for which the EC50 was > 100 nM.

B32: Ab0376 (antibody, IgG4, V domains shown)
VH: B4 VH
VL: B4 VL with S93C, H95C
In the case of B32, the EC50 is > 100 nM.

B33: Ab0378 (antibody, IgG4, V domains shown)
VH: B4 VH with H52S
VL: B4 VL with E94V
In the case of B33, the EC50 was > 100 nM.

B34: Ab0398 (antibody, IgG4, V domains shown)
VH: B4 VH with H52S
VL: B4 VL with S1C, S93C, E94A
As to B34, the concentration giving a half-maximal response (EC50) is > 100 nM.

B35: Ab0392 (antibody, IgG4, V domains shown)
VH: B4 VH with H52W, W54F
VL: B4 VL with E94S
As to B35, the EC50 was > 100 nM.

B36: Ab0381 (antibody, IgG4, V domains shown)
VH: B4 VH
VL: B4 VL with S93C, E94V, H95C
For the molecule B36, the EC50 is > 100 nM.

B37: Ab0393 (antibody, IgG4, V domains shown)
VH: B4 VH with H52W, W54F
VL: B4 VL with S93C, E94S, H95C
On to B37, for which the EC50 was > 100 nM.

B38: Ab0403 (antibody, IgG4, V domains shown)
VH: B4 VH with H52W, W54F
VL: B4 VL with S1C, S93C, E94A
Regarding B38, the EC50 is > 100 nM.

B39: Ab0408 (antibody, IgG4, V domains shown)
VH: B4 VH with H52W, W54F
VL: B4 VL with E94T
As for B39, the EC50 was > 100 nM.

B40: Ab0410 (antibody, IgG4, V domains shown)
VH: B4 VH with W54F
VL: B4 VL with F89Y, E94S
Take B40: the EC50 is > 100 nM.

B41: Ab0389 (antibody, IgG4, V domains shown)
VH: B4 VH with H52S
VL: B4 VL with S1C, S93C, E94S
In the case of B41, the 50% effective concentration (EC50) is > 100 nM.

Broadly, the EC50 is the midpoint of the concentration-response curve. For orientation: Emax means the maximal effect, on the per cent scale that the assay sets.
